Measured values reported in patent publication US8865648B2, “Monomeric and dimeric forms of adiponectin receptor fragments and methods of use” (Siemens Healthcare Diagnostics Inc., priority 2009, dated 2014).
Bridge positions count the residues as written; N and C are the ends. Ends that are not written are not given here. I, II: the chains in the order shown.

B1: R1 CTF32 R2 CTF32: SEQ ID NO:1 linked via a disulfide bond to SEQ ID NO:2 (peptide)
chain 1: VVAAAFVHFYGVSNLQEFRYGLEGGCTDDTLL
chain 2: VVAGAFVHFHGVSNLQEFRFMIGGGCSEEDAL
modifications: disulfide I:26-II:26 (inferred)
B2: R1 CTF32 R1 CTF32: SEQ ID NO:1 linked via a disulfide bond to SEQ ID NO:1 (peptide)
chain 1: B1 chain 1
chain 2: B1 chain 1
modifications: disulfide I:26-II:26 (inferred)
B3: R2 CTF32 R2 CTF32: SEQ ID NO:2 linked via a disulfide bond to SEQ ID NO:2 (peptide)
chain 1: B1 chain 2
chain 2: B1 chain 2
modifications: disulfide I:26-II:26 (inferred)

Tests used:
ADAM-17 = ADAM-17 (Homo sapiens, UniProt P78536); experiment: Inhibition of enzymes: ADAM-17 inhibition; type: biochemical; details: ADAM-17 at level of 400 ng/ml
Protocol: (§1) Inhibition of insulin degradation enzyme (IDE) is a biological function of CTF. The inhibition reduces insulin degradation in the liver and other tissues and thereby increases insulin levels in the blood. The enzymes for cleavage of the dimers are also potential therapeutic targets. Each of the peptides synthesized in Example 1 was tested for their effect on cleavage and target enzymes (ADAM-17 and IDE at level of 400 ng/ml).

[1] = target: insulin degradation enzyme (IDE) (Homo sapiens, UniProt P14735); experiment: Inhibition of enzymes: insulin degradation enzyme (IDE) inhibition; type: biochemical; details: for IDE Inhibition (90% inhibition at): IDE at level of 400 ng/ml, peptide level giving 90% inhibition
Protocol: as §1

[2] = when administered to patients; cited from earlier work

ADAM-17, sequence (P78536 215-824): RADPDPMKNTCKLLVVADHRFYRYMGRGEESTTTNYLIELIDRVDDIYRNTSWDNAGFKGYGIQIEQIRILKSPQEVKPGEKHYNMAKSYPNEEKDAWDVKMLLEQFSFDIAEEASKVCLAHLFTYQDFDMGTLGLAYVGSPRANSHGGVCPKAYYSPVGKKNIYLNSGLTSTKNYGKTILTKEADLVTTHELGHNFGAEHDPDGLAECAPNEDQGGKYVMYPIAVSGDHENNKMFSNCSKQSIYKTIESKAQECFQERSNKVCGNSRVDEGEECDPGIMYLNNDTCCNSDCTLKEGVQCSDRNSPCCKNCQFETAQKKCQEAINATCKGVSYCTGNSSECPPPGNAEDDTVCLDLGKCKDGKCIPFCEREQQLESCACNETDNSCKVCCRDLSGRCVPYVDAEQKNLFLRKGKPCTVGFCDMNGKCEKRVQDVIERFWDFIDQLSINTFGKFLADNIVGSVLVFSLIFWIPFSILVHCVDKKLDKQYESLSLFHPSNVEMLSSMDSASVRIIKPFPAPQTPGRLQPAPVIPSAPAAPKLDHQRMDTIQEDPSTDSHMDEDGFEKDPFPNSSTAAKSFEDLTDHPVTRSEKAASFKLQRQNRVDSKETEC

| Molecule | ADAM-17 Inhibition (observed) (ADAM-17) | IDE Inhibition (90% inhibition at) [1] | insulin-sensitizing effect [2] | activity of heterodimer compared with corresponding homodimers ([1]; comparison drawn from the data in TABLE 2) |
| --- | --- | --- | --- | --- |
| HFYGVSNLQEFRYGLEGGCTDDTLL [R1 CTF25] | Negative | – | – | – |
| GGCTDDTLL [R1 CTF9] | Negative | negative | – | – |
| HVLVVAAAFVHFYGVSNLQEFRYGLEGGCT [R1 CTF30] | Negative | Negative | – | – |
| VVAGAFVHFHGVSNLQEFRFMIGGGCSEEDAL [R2 CTF32, C-terminal fragment of ADIPOR2, 32 amino acids] | Positive | – | – | – |
| R1 CTF25 R2 CTF25: SEQ ID NO:5 linked via a disulfide bond to SEQ ID NO:6 (chain 1 HFYGVSNLQEFRYGLEGGCTDDTLL; chain 2 HFHGVSNLQEFRFMIGGGCSEEDAL; disulfide I:19-II:19 (inferred)) | Negative | – | – | – |
| HFHGVSNLQEFRFMIGGGCSEEDAL [R2 CTF25] | Negative | – | – | – |
| VVAAAFVHFYGVSNLQEFRYGLEGGCTDDTLL [R1 CTF32, C-terminal fragment of ADIPOR1, 32 amino acids] | Positive | – | acted as an insulin-sensitizing agent | – |
| LQEFRYGLEGGCTDDTLL [R1 CTF17] | Negative | negative | – | – |
| GGCSEEDAL [R2 CTF9] | Negative | Negative | – | – |
| B1 | Positive | – | – | more active than the corresponding homodimers |
| B2 | Positive | – | – | – |
| B3 | Positive | – | – | – |
